Data on eight molecules can be found in patent publication US20240382677A1.

B1: H2aM7791N (antibody, mouse IgG2a, V domains shown)
VH: QMQLQQWGAGLLKPSETLSLTCVVYGGSLNGYYWSWIRQSPGKGLEWIGEIDHSGSTNYNPSLKNRVTMSVDTSKIQFSLKLTSVTVADTAVYYCAREGLLPFDYWGQGTLVTVSS
VL: EIVLTQSPGTLSLSPGERVTLSCRASQSVYSNYLAWYQQNPGQAPRLLIYAASNRATGIPDRFSGSGSGTDFTLTISRLEPEDFAVYYCHQYATSPWTFGQGTKVEIK
B2: H2aM7795N (antibody, mouse IgG2a, V domains shown)
VH: EVQVVESGGGLVEPGRSLRLSCKASGFTFDDYAMHWVRQTPGKALEWVSGINWSGNNIGYADSVKGRFTISKDDAKNSLYLQMNSLRPEDTALYYCTKDISITGTLDAFDVWGQGTMVTVSS
VL: DIQMTQSPISVSASVGDRVTITCRASQGISNWLAWYQQKPGIAPKLLIYSASSLQSGVPSRFRGSGSGTDFTLTIGSLQPEDFATYYCQQAHSFPLTFGGGTKVEIK
B3: H2aM7796N (antibody, mouse IgG2a, V domains shown)
VH: QVQLVESGGGVVQPGRSLRLSCAASGFTFSSYGMHWVRQAPGKGLEWVAIIWSDGDSEYNLDSVKGRFTISRDNSKNTLYLQMNSLRVEDSAVYYCARDRDLEDIWGQGTMVTVSS
VL: DIQMTQSPSSLSASVGDRVTITCRASQGIRNDLGWYQQKPGKAPKRLIYAASNLQSGVPSRFSGSGSGTEFTLTISSLQPEDFATYYCLQHNSYPLTFGGGTKVEIK
B4: H1M7789N (antibody, mouse IgG1, V domains shown)
VH: EVQLLESGGGLVQPGGSLRLSCSASGFTFSSYTMNWVRQAPGKGLEWVSGISDTGGNTYYTDSVKGRFTVSRDNSKNTLSLQMNSLRAEDTAVYYCAKDQGGSYPYYFHYWGQGSLVTVSS
VL: DIQMTQSPSSLSASVGDRVTITCRASQSISSYLIWYQQKPGTAPKFLIYAASSLQSGVPSRFSGCGSGTDFTLTISSLQPEDFATYYCQQSYSTPPITFGQGTRLEIK
B5: H2aM7780N (antibody, mouse IgG2a, V domains shown)
VH: QVQLVESGGGVVQSGRSLRLSCAASGFTFSSYGMHWVRQAPGKGLEWVAVIWYDGSNIYYSDSVKGRFTISRANSKNTLYLQMNSLRAEDTAVYYCARPGHWNYFFEYWGQGTLVTVSS
VL: B4 VL with S30N, S31N, I34N, T42K, F46L, A50T, C65S, I97L, R104Q
B6: H2aM7798N (antibody, mouse IgG2a, V domains shown)
VH: EVQLLESGGVLVQPGGSLRLSCAASGFTFSNFGMTWVRQAPGKGLEWVSGISGGGRDTYFADSVKGRFTISRDNSKNTLYLQMNSLKGEDTAVYYCVKWGNIYFDYWGQGTLVTVSS
VL: DIQMTQSPSSLSASVGDSITITCRASLSINTFLNWYQQKPGKAPNLLIYAASSLHGGVPSRFSGSGSGTDFTLTIRTLQPEDFATYYCQQSSNTPFTFGPGTVVDFR
B7: H4H7795N2 (antibody, human IgG4 S228P, kappa, V domains shown)
VH: B2 VH with N52S
VL: DIQMTQSPISVSASVGDRVTITCRASQGISNWLAWYQQKPGIAPKLLIYSASSLQSGVPSRFRGSGSGTDFTLTIGSLQPEDFATYYCQQAHSFPLTFGGGTKVEIKR
B8: H4H7798N (antibody, human IgG4 S228P, kappa, V domains shown)
VH: B6 VH
VL: DIQMTQSPSSLSASVGDSITITCRASLSINTFLNWYQQKPGKAPNLLIYAASSLHGGVPSRFSGSGSGTDFTLTIRTLQPEDFATYYCQQSSNTPFTFGPGTVVDFRR

Changes are numbered by the printed parent chain.

The target of one test is full length human PD-1 on HEK293/hPD-1 cells (human). The test can be described thus: FACS, 100 nM antibody.
For the molecule B1, the ratio of HEK293/hPD-1 to HEK293 parental cells worked out at 18 fold.

In the case of B2, the ratio of HEK293/hPD-1 to HEK293 parental cells is 2.8 fold.

With B3, the ratio of HEK293/hPD-1 to HEK293 parental cells is 168 fold.

With B4, the ratio of HEK293/hPD-1 to HEK293 parental cells turned out to be 92.3 fold.

Turning to B5, the ratio of HEK293/hPD-1 to HEK293 parental cells came to 73.8 fold.

On to B6, for which the ratio of HEK293/hPD-1 to HEK293 parental cells was determined as 78.1 fold.

Another test has the same target. The test can be described thus: FACS, 100 nM antibody, HEK293/hPD-1 cells.
B1: the MFI came to 4950 MFI.

As for B2, the MFI is 817 MFI.

B3 gave an MFI of 49800 MFI.

The molecule B4 had an MFI of 24200 MFI.

As to B5, the MFI turned out to be 23700 MFI.

B6 gave an MFI of 23400 MFI.

Another test has the same target. Nature of the test: FACS dose response, HEK293/hPD-1 cells; EC50 Inconclusive.
Molecule B7 showed a Max Geom. Mean MFI @ 100 nM of 15200 MFI.

With B4, the Max Geom. Mean MFI @ 100 nM was 35600 MFI.

The target is the same in another test. Nature of the test: FACS dose response, HEK293/hPD-1 cells.
B3 came in with an EC50 of 4.81 nM and a Max Geom. Mean MFI @ 100 nM of 14100 MFI.

In the case of B5, the EC50 is 1.69 nM and the Max Geom. Mean MFI @ 100 nM stood at 18400 MFI.

On to B6, for which the EC50 is 0.0698 nM and the Max Geom. Mean MFI @ 100 nM is 20900 MFI.

B8 yielded an EC50 of 0.509 nM and a Max Geom. Mean MFI @ 100 nM of 20300 MFI.

The next test has the same target. Nature of the test: FACS dose response, HEK293/hPD-1 cells; No EC50 determined.
Regarding B1, the Max Geom. Mean MFI @ 100 nM was 1400 MFI.

As to B3, the Max Geom. Mean MFI @ 100 nM was determined as 624 MFI.
